Key:
[1] = target: PD-L1 on CHO-PD-L1 cells (human) (UniProt Q9NZQ7); test: flow cytometry cell binding; CHO-PD-L1 cells
CD47 on Jurkat cells = CD47 on Jurkat cells (UniProt Q08722); test: flow cytometry cell binding; Jurkat cells

Chain of PD-L1 on CHO-PD-L1 cells (human) (Q9NZQ7 19-290): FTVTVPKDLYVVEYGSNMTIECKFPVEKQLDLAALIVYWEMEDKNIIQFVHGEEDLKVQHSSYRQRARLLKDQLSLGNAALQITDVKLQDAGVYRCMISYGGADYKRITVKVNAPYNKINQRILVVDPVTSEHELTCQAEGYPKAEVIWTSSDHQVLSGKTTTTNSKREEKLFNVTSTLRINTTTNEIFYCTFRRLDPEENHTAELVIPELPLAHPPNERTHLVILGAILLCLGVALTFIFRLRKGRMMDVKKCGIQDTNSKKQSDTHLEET

Substance | EC50 [1] [nM] | EC50 (CD47 on Jurkat cells) [nM]
Atezolizumab | 0.027 | –
IMM2505 | 0.0471 | 0.913
